# Measured values as given in patent US11466286B2, “Methods and compositions for conferring and/or enhancing herbicide tolerance using protoporphyrinogen oxidase or variant thereof” (FarmHannong Co., Ltd., priority 2016, dated 2022).
# Assays:
# [1] = tested on: PPO-deficient BT3 E. coli (ΔPPO); experiment: Herbicide tolerance of PPO-deficient BT3 E. coli transformed with CyPPO10/CyPPO13 wild type or mutant genes on herbicide-containing LB agar; format: cell-based; design: key: the level of herbicide tolerance of the wild type was represented by “−”; if higher, adding “+” to the max “+++++”; if higher, adding “+” to the max “+++++”; if higher, adding “+” to the max “+++++”; if higher, adding “+” to the max “+++++”; if higher, adding “+” to the max “+++++”
# Excerpt: In order to enhance PPO-inhibiting herbicide tolerance of CyPPO10 and CyPPO13, the amino acids interacting with herbicide, as identified in the Example 3, were mutated. After PPO-deficient BT3 E. coli (ΔPPO) was transformed with a PPO gene having such mutation, and then cultured with PPO-inhibiting herbicide, to observe the growth of transformed E. coli, as follows:
# The pET303-CyPPO10 or pET303-CyPPO13 plasmids prepared in the Example 4, and plasmids containing each mutant gene, were transformed into BT3 competent cell by a heat shock method, and cultured in a LB agar medium containing ampicillin (100 μg/ml).
# For seed culture of BT3 transformants, a single colony thereof was cultured in 3 ml of LB broth (LPSS) containing ampicillin for 12 hours or more, and 50˜100 μl of the cultured solution was further cultured until absorbance (OD600) reaches 0.5 to 1. Then, the obtained cultured solution was diluted with LB broth to adjust absorbance (OD600) to 0.5, and was diluted again 5 times by a factor of one tenth with LB broth.
# LB (25 g/L), Bacto agar (12 g/L), ampicillin (100 μg/ml) and various herbicides (0˜200 μM) were mixed, to prepare herbicide-containing media.
# Ten microliters of the diluted solution were dropped on the herbicide-containing media, and the media were incubated with light for 16-20 hours at 37° C. The growth level and PPO-inhibiting herbicide tolerance of BT3 transformed with each gene were evaluated.
# The herbicide tolerance was evaluated relatively compared to CyPPO wild type, and shown in following Tables 8 to 11 and FIGS. 11 to 29:
# In the Tables 8 to 11, the level of herbicide tolerance of the wild type was represented by “−”, and the level of herbicide tolerance was graduated by representing the equal level of tolerance by “−”, and if higher, adding “+” to the max “+++++”.
# FIGS. 11 to 19 (wild type and variants of CyPPO10) and FIGS. 20 to 29 (wild type and variants of CyPPO13) show the results of culturing E. coli transformed with CyPPO genes (wild type and variant type), and the concentration described on the top is concentration of herbicide treated. Six columns of each concentration were sequentially diluted 5 times by a factor of one tenth with the E. coli culture solution to the right, and the most left column is the result of E. coli culture solution OD600=0.5.
# [2] = tested on: CyPPO10; experiment: PPO enzyme activity and IC50 by herbicides, CyPPO10 wild type and variants (MBP-PPO fusion); format: biochemical, Thermosynechococcus elongatus BP-1; conditions: PPO enzyme activity of CyPPO10 protein, wild type = 100
# Method in brief: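 Activity was read as protoporphyrin IX fluorescence (405/633 nm), calibrated with a protoporphyrin IX standard curve, after 30 min at room temperature with 50 μM substrate under mineral oil. The buffer was 50 mM Tris-Cl pH 8.0 with glucose oxidase/catalase and a 30 min preincubation. Enzymes were purified MBP-PPO fusions of CyPPO10 or CyPPO13, wild type and variants, expressed in E. coli.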
# [3] = tested on: A. thaliana; experiment: Seed germination of A. thaliana transformants on ½ MS media containing herbicides; format: in vivo, Arabidopsis thaliana; conditions: T3 lines; 25 μM glufosinate, 25 μM glufosinate+70 nM tiafenacil, or 25 μM glufosinate+30 nM tiafenacil+40 nM saflufenacil; 7 days after sowing
# Excerpt: T3 generation seeds of each transformant were sown in ½ MS media containing herbicides. Col-0 ecotype (wild type Arabidopsis) seeds were used as a control. The kinds of herbicides and concentration are as follows:
# In FIGS. 31a to 31c, 10-3 refers to CyPPO10 wild type, 10FM-4-7 to the CyPPO10 F360M transgenic line, 10FL-1-9 to the CyPPO10 F360L transgenic line, 10FC-3-5 to the CyPPO10 F360C transgenic line, 10AC-5-4 to the CyPPO10 A167C transgenic line, 13-1 to CyPPO13 wild type, 13FM-3-1 to the CyPPO13 F373M transgenic line, 13FC-1-1 to the CyPPO13 F373C transgenic line, 13FI-2-1 to the CyPPO13 F373I transgenic line, 13AC-1-3 to the CyPPO13 A177C transgenic line, CyPPO13_ALFL to the CyPPO13 A177L+F373L transgenic line, and CyPPO13_ALFI to the CyPPO13 A177L+F373I transgenic line, respectively.
# [4] = BT3 E. coli with CyPPO13 gene, relative to CyPPO13 wild type
# [5] = BT3 E. coli with CyPPO10 gene, relative to CyPPO10 wild type
Molecule,"Herbicide tolerance level, Acifluorfen (up to 200 μM) [1, 4]","Herbicide tolerance level, Fomesafen (up to 200 μM) [1, 4]","Herbicide tolerance level, Pyraclonil (up to 200 μM) [1, 4]","Herbicide tolerance level, Pyraflufen-ethyl (up to 200 μM) [1, 4]","Herbicide tolerance level, Sulfentrazone (up to 200 μM) [1, 4]",Activity (%) [2],Seed germination in media containing herbicides [3],other results
"CyPPO13 P316A + V318L: CyPPO13 (SEQ ID NO: 4) PPO variant (protein, Synthetic CyPPO13) MNPATPEPLNAEVVVIGAGISGLTLAWRLQQGLSARGGSPQAVLLAEASSRVGGCISTQSKDGYRWEEGPNSFTPTPALLNLIAEVGLTDQLVLADAKLPRYIYWEGALLPVPLSPAAALGSRLLSVGGKLRALQGLLGFVPPPPGHEETVRQFFRRQLGSEVAERLVEPFTSGVYAGDPDQLSAVAAFPRVAGLEERYGSLFAGALQALRQRPQPSPAAIQPPPKRGQLGNLRQGLQQLPEALAQKLGDSLRLGWRALQLKRAGELYWVGFETPEGSRWVAARQVVLALPAYEAAALLQELNPPASQLLAEILYAPLAVVALAYPQEALPQPLRGFGHLIPRSQGLRTLGTIWASCLFPERAPQGYHSFLSFLGGATDAALARRRGIPPIPALSPEERAQIAHAELSQVLLTRRAEPVYLGERLWPRAIPQYTLGHRQRIAQVQAHLASQTPGIWVCANYLDGVALGDCVRRAEALAQQLLSQV",+++,−,−,+,−,,,
"CyPPO13 P316L + V318L: CyPPO13 (SEQ ID NO: 4) PPO variant (protein, Synthetic CyPPO13) MNPATPEPLNAEVVVIGAGISGLTLAWRLQQGLSARGGSPQAVLLAEASSRVGGCISTQSKDGYRWEEGPNSFTPTPALLNLIAEVGLTDQLVLADAKLPRYIYWEGALLPVPLSPAAALGSRLLSVGGKLRALQGLLGFVPPPPGHEETVRQFFRRQLGSEVAERLVEPFTSGVYAGDPDQLSAVAAFPRVAGLEERYGSLFAGALQALRQRPQPSPAAIQPPPKRGQLGNLRQGLQQLPEALAQKLGDSLRLGWRALQLKRAGELYWVGFETPEGSRWVAARQVVLALPAYEAAALLQELNPPASQLLAEILYLPLAVVALAYPQEALPQPLRGFGHLIPRSQGLRTLGTIWASCLFPERAPQGYHSFLSFLGGATDAALARRRGIPPIPALSPEERAQIAHAELSQVLLTRRAEPVYLGERLWPRAIPQYTLGHRQRIAQVQAHLASQTPGIWVCANYLDGVALGDCVRRAEALAQQLLSQV",+++,++,−,+,+,,,
"CyPPO10 F360M: CyPPO10 (SEQ ID NO: 2) PPO variant (protein, Synthetic CyPPO10) MIEVDVAIVGGGLSGLSVAWRLQRSAPHYSGVLLEASDRLGGNITTQAAEGFVWELGPNSFAPTPALLQLIAEVGLHSELIRGDRHLPRYIYWRGELYPLEPTRPLALATSNLLSPWGKVRAALGALGFVPPYLGSGDESVDSFFRRHLGQEVAERLVAPFVSGVYAGDPQQLSAAAAFRRIAQLEKLGGSLIAGALRLRRQQPPQPKPPAQVQMRPGELGSFREGLAALPRAIAQQLKAPLHLQTPVEAITPEPKGGYLLRSGEQTWHARSVVLATPAYQTAELVAPFQPAIARALATIPYPTVACVVLAYPAGLGRSVRPGFGVLVPRGQGIRTLGTIWSSCLFPQRTPAGWQVFTSMIGGATDPDLASLREEAIVEQVQQDLTRLLDLPAAKARLLGMKVWRRAIPQYIVGYPQQWQQVTHALTQTPGLFLCSNYAEGVALGDRVEHGNRTAAAVAAYLAGGQS",,,,,,93%,germinated,
"CyPPO10 F360I: CyPPO10 (SEQ ID NO: 2) PPO variant (protein, Synthetic CyPPO10) MIEVDVAIVGGGLSGLSVAWRLQRSAPHYSGVLLEASDRLGGNITTQAAEGFVWELGPNSFAPTPALLQLIAEVGLHSELIRGDRHLPRYIYWRGELYPLEPTRPLALATSNLLSPWGKVRAALGALGFVPPYLGSGDESVDSFFRRHLGQEVAERLVAPFVSGVYAGDPQQLSAAAAFRRIAQLEKLGGSLIAGALRLRRQQPPQPKPPAQVQMRPGELGSFREGLAALPRAIAQQLKAPLHLQTPVEAITPEPKGGYLLRSGEQTWHARSVVLATPAYQTAELVAPFQPAIARALATIPYPTVACVVLAYPAGLGRSVRPGFGVLVPRGQGIRTLGTIWSSCLFPQRTPAGWQVFTSIIGGATDPDLASLREEAIVEQVQQDLTRLLDLPAAKARLLGMKVWRRAIPQYIVGYPQQWQQVTHALTQTPGLFLCSNYAEGVALGDRVEHGNRTAAAVAAYLAGGQS",,,,,,67%,germinated,
"CyPPO10 F360C: CyPPO10 (SEQ ID NO: 2) PPO variant (protein, Synthetic CyPPO10) MIEVDVAIVGGGLSGLSVAWRLQRSAPHYSGVLLEASDRLGGNITTQAAEGFVWELGPNSFAPTPALLQLIAEVGLHSELIRGDRHLPRYIYWRGELYPLEPTRPLALATSNLLSPWGKVRAALGALGFVPPYLGSGDESVDSFFRRHLGQEVAERLVAPFVSGVYAGDPQQLSAAAAFRRIAQLEKLGGSLIAGALRLRRQQPPQPKPPAQVQMRPGELGSFREGLAALPRAIAQQLKAPLHLQTPVEAITPEPKGGYLLRSGEQTWHARSVVLATPAYQTAELVAPFQPAIARALATIPYPTVACVVLAYPAGLGRSVRPGFGVLVPRGQGIRTLGTIWSSCLFPQRTPAGWQVFTSCIGGATDPDLASLREEAIVEQVQQDLTRLLDLPAAKARLLGMKVWRRAIPQYIVGYPQQWQQVTHALTQTPGLFLCSNYAEGVALGDRVEHGNRTAAAVAAYLAGGQS",,,,,,,germinated,
"CyPPO10 V305M: CyPPO10 (SEQ ID NO: 2) PPO variant (protein, Synthetic CyPPO10) MIEVDVAIVGGGLSGLSVAWRLQRSAPHYSGVLLEASDRLGGNITTQAAEGFVWELGPNSFAPTPALLQLIAEVGLHSELIRGDRHLPRYIYWRGELYPLEPTRPLALATSNLLSPWGKVRAALGALGFVPPYLGSGDESVDSFFRRHLGQEVAERLVAPFVSGVYAGDPQQLSAAAAFRRIAQLEKLGGSLIAGALRLRRQQPPQPKPPAQVQMRPGELGSFREGLAALPRAIAQQLKAPLHLQTPVEAITPEPKGGYLLRSGEQTWHARSVVLATPAYQTAELVAPFQPAIARALATIPYPTMACVVLAYPAGLGRSVRPGFGVLVPRGQGIRTLGTIWSSCLFPQRTPAGWQVFTSFIGGATDPDLASLREEAIVEQVQQDLTRLLDLPAAKARLLGMKVWRRAIPQYIVGYPQQWQQVTHALTQTPGLFLCSNYAEGVALGDRVEHGNRTAAAVAAYLAGGQS",,,,,,100%,,"Herbicide tolerance level, Acifluorfen (up to 200 μM) [1, 5]: +++; Herbicide tolerance level, Fomesafen (up to 200 μM) [1, 5]: ++++; Herbicide tolerance level, Pentoxazone (up to 200 μM) [1, 5]: ++++; Herbicide tolerance level, Pyraclonil (up to 200 μM) [1, 5]: +++; Herbicide tolerance level, Pyraflufen-ethyl (up to 200 μM) [1, 5]: +; Herbicide tolerance level, Saflufenacil (up to 200 μM) [1, 5]: +; Herbicide tolerance level, Tiafenacil (up to 200 μM) [1, 5]: ++"
